US8110551B2 (priority 2008, dated 2012)
Like-named read-outs stand apart in the source and are kept apart here.

What was measured:
[1] = test system: Jurkat cells; type: cell-based, human; conditions: 16 hr
[2] = test system: CdtB; experiment: Effect of phosphatase inhibitors on CdtB-mediated hydrolysis of PI-3,4,5-P3; type: biochemical, A. actinomycetemcomitans; conditions: for reduction of CdtB phosphatase activity: 0.5 μM CdtB, 30 min
Method: CdtB (0.5 μM; triangles) and PTEN (0.1 μM; circles) were incubated with liposomes containing PI-3,4,5-P3 in the presence of varying concentrations of tungstate or orthovanadate for 30 min. Phosphate release was measured using the malachite green binding assay. Results are plotted as phosphate release (nmol/30 min; mean±S.D.) versus inhibitor concentration (mM);
(§1) Phosphatase activity was assessed by monitoring the dephosphorylation of PI-3,4,5-P3 as described by Maehama et al [Maehama, T., G. Taylor, J. Slama, and J. Dixon. 2000. A sensitive assay for phosphoinositide phosphatases. Analytical Biochemistry 279:248-2501. Briefly, the reaction mixture (20 μl) consisted of 100 mM Tris-HCl (pH 8.0), 10 mM dithiothreitol, 0.5 mM diC16-phosphatidylserine (Avanti), 25 μM PI-3,4,5-P3 (diC16; Echelon) and the indicated amount of CdtB, CdtABC or PTEN (kindly provided by Gregory Taylor). Appropriate amounts of lipid solutions were deposited in 1.5 ml tubes, organic solvent removed, the buffer added and a lipid suspension formed by sonication. For experiments to determine substrate specificity, PI-3,4,5-P3 was replaced by the indicated phosphatidylinositol phosphate (Echelon). Phosphatase assays were carried out at 37° C. for 30 min; the reactions were terminated by the addition of 15 μl of 100 mM N-ethylmaleimide. Inorganic phosphate levels were then measured using a malachite green assay. Malachite green solution (Biomol Green; Biomol) was added to 100 μl of the enzyme reaction mixture and color was developed for 20 min at RT. Absorbance at 650 nm was measured and phosphate release quantified by comparison to inorganic phosphate standards.

[3] = type: biochemical
[4] = Substrate specificity with phosphoinositides in liposomes; type: biochemical; conditions: 0.5 μM CdtB, 0.1 μM PTEN; 30 min; liposomes with phosphatidylserine carrier; FIG. 3
Method: as §1, with “Malachite green solution (Biomol Green; Biomol) was added to 100 μl of the enzyme reaction mixture and color was developed for 20 min at RT.” left out
CdtB substrate specificity was assessed using several different phosphoinositides (PI). […] In order to determine whether CdtB is a 3- or 5-phosphatase, product formation was assessed using thin layer chromatography. […]

[5] = TLC analysis of product formation after PI-3,4,5-P3 hydrolysis; type: biochemical; conditions: 0.5 μM CdtB or 0.1 μM PTEN, FIG. 3 inset
Excerpt: Analysis of CdtB-Mediated Product Formation
Inositol lipids were separated by thin layer chromatography. Silica gel G plates were dipped in boric acid (5% in methanol) and then dried. They were then spotted with the lipid samples dissolved in chloroform/methanol/water (1/2/0.1) together with solutions containing the standard inositol lipids phosphatidyl 4,5 bisphosphate, phosphatidyl 3,4 bisphosphate, phosphatidyl 3,5bis phosphate, phosphatidyl 3,4,5 trisphosphate, and phosphatidyl inositol. The plates were eluted with solutions containing propyl acetate/isopropanol/ethanol/ammonia/water (15/45/16/9/35), dried, and sprayed with solution containing CuSO4/H3PO4 (8%/10%), and air dried again. Plates were then heated to 70° C. then to 155° C. to visualize the lipids.

[6] = Dephosphorylation of inositol phosphates; type: biochemical
[7] = Protein phosphatase activity with synthetic substrate; type: biochemical; conditions: synthetic substrate pNPP
[8] = test system: supercoiled pUC19 DNA; type: biochemical
[9] = test system: Jurkat cells; type: cell-based, human
[10] = 30 min, read-out: ED0.5 [concentration required to catalyze 0.5 nmol phosphate release]

O=c1cc(N2CCOCC2)oc2c(-c3ccccc3)cccc12 [LY290004]
Cdt-induced accumulation of G2 cells after pre-treatment [1]: 22.0%

[O]=[Mo](=[O])([O-])[O-] [molybdate]
inhibition of CdtB (in words) [2]: failed to inhibit

[O]=[V]([O-])([O-])[O-] [orthovanadate]
reduction of CdtB phosphatase activity ([2]; 1 mM inhibitor): 10% | reduction of CdtB phosphatase activity ([2]; 10 mM inhibitor): 85%

[O]=[W](=[O])([O-])[O-] [tungstate]
reduction of CdtB phosphatase activity ([2]; 1 mM inhibitor): 15% | reduction of CdtB phosphatase activity ([2]; 10 mM inhibitor): 70%

COC[C@H]1OC(=O)c2coc3c2[C@@]1(C)C1=C(C3=O)[C@@H]2CCC(=O)[C@@]2(C)C[C@H]1OC(C)=O [wortmannin]
Cdt-induced accumulation of G2 cells after pre-treatment [1]: 35%

PTEN: Tumor suppressor phosphatase (phosphatase and tensin homolog deleted on chromosome ten), used for comparison [reference compound]
Km [3]: 159 µM | EC50 [3, 10]: 50 nM | substrate specificity (phosphate release with phosphatidylinositol phosphates) [4]: substrate specificity for PI-(3,4,5)-P3 identical to CdtB | product formed from PI-3,4,5-P3 [5]: PI-(4,5)-P2

B1: CdtB: Active B subunit of cytolethal distending toxin, SEQ ID NO: 3, expressed from pGEMCdtB (protein)
chain: NLSDFKVATWNLQGSSAVNESKWNINVRQLLSGEQGADILMVQEAGSLPSSAVRTSRVIQHGGTPIEEYTWNLGTRSRPNMVYIYYSRLDVGANRVNLAIVSRRQADEAFIVHSDSSVLQSRPAVGIRIGTDVFFTVHALATGGSDAVSLIRNIFTTFTSSPSSPERRGYSWMVVGDFNRAPVNLEAALRQEPAVSENTIIIAPTEPTHRSGNILDYAILHDAHLPRREQARERIGASLMLNQLRSQITSDHFPVSFVRDR
modifications: Actinobacillus actinomycetemcomitans
Km [3]: 124 µM | PIP3 phosphatase activity (% CdtB^wt) [3]: 100 % CdtB^wt | EC50 [3, 10]: 500 nM | EC50 ([3]; read-out: ED0.5): 300 nM | substrate specificity (phosphate release with phosphatidylinositol phosphates) [4]: only occurred in the presence of PI-3,4,5-P3 | dephosphorylation of inositol triphosphate or inositol tetrakisphosphate [6]: unable to dephosphorylate | protein phosphatase activity [7]: did not exhibit detectable protein phosphatase activity | product formed from PI-3,4,5-P3 [5]: PI-(3,4)-P2 | DNase Activity (% CdtB^wt) [8]: 100 % CdtB^wt | DNase activity (in words) ([8]; 2 hrs at 37° C.): detectable nuclease activity although it was less than five orders of magnitude of that observed with bovine DNase I | toxicity (G2 cell cycle arrest), dose response [9]: comparable activity | percentage of G2 cells ([9]; 18 hrs): 54.8%
